The DeepSol protein solubility set

experiment: soluble on expression in E. coli; label from the status in PepcDB or PDB records

Row | Sequence | soluble on expression in E. coli
1 | SLLCGPLRLSESGETWSEVWAAIPMSDPQVLHLQGGSQDGRLPRTIPLPSCKLSVPDPEERLDSGHVWKLQWAKQSWYLSASSAELQQQWLETLSTAAH | soluble
2 | MKSIPGDIPQYLLIKAQLQARIQSGALKSGDKLPSERELCAIFNTTRITIRESLAQLESSGLIWRADRRGWFVTPERLWLDPTQNTNFHKLCREQGREPKTALLSGVLTTVPVEVMEPLQLQPFDQIYLLTRLRYADGRAVCYCENHCLPARVPELLQYDLNGSLTEVYESHYNLVYTSMHLSFYPTAMPAQAAQALGVMEGRPALLLRRLNYDQHGRVLDLDIEYWRHDSLRIEVDTH | not soluble
3 | SDRWEVPVNPSNVRSASSHQTVSASDRASDKVDERPATFSHFQLARCGEDYTLSMVSLAAYQAERRHRGNLIKDRSQSALPWVQVYHSETGLDYSFQIDRTTTVKVAGFNYNVPNDGETRHLYSAGTSQVNMPVITDNMSACIAVACAAENVDAGTGERRPGAKVRVFHLLPFRREDLMPEQVLASVRDYLRDIKEQGLTMRVALHGGNREGDFSVSTAEALKSLFADEGIPIEFDETCANRTSETLLGAVILNDNSTQFIKH | not soluble
4 | MEIIHLSEIDSTNDYAKELAKEGKRNFIVLADKQNNGKGRWGRVWYSDEGGLYFSMVLDSKLYNPKVINLLVPICIIEVLKNYVDKELGLKFPNDIMVKVNDNYKKLGGILTELTDDYMIIGIGINVNNQIRNEIREIAISLKEITGKELDKVEILSNFLKTFESYLEKLKNKEIDDYEILKKYKKYSITIGKQVKILLSNNEIITGKVYDIDFDGIVLGTEKGIERIPSGICIHVR | soluble
5 | LENDRTTFRIRNLDSGEIIWSGMGAVYPVYSPSFDHAADAFAFAFSSPADPPEIHLLRDAETKSSINSHLDGVSPYPAEIVEWKAKDGEDLYGILRLIDPKNPLIVYIHGGPTSFSYASFLDRTSIYLGYGFNVFAPNYRGSVGKGRRYAELNVGDLGGKDFDDVISGIEFLKNTGKIATDRIYITGGSYGGYMSALAVMKTDIFRASVSLFGISDWVSFHGVSNLHLWDRLHMDADPWAFKKYDEYSPIRIMHEPKTPTLLMHGIKDPYVPIGQYYEFYRFLKEKNCEVRMIVFPREGHGFTEKEHIRRQYMETIRFMKDH | not soluble
6 | GSDARSRGRVPGYASSSLYRESGIISARQLALLQRMLPRLRLEQLFRCEWLQQRLARGLALGREEVRQILLCAAQDDDGWCSELGDRVNLAVPQSMIDWVLLPVYGWWESLLDQAIPGWRLSLVELETQSRQLRVKSEFWSRVAELEPEQAREELARVAKCQARTQEQVAELAGKLETASALAKSAWPNWQRGMATLLASGGLAGFEPIPEVLECLWQPLCRLDDDVGAADAVQAWLHERNLCQAQDHFYWQS | not soluble
7 | MADEIAKAQVARPGGDTIFGKIIRKEIPAKIIFEDDQCLAFHDISPQAPTHFLVIPKKHISQISAAEDADESLLGHLMIVGKKCAADLGLKKGYRMVVNEGSDGGQSVYHVHLHVLGGRQMNWPPG | soluble
8 | MVDGEGITPKTCSEDIIKDLLNDVKSSEKPFSVDKLAGCDQTDFVGKRPKKHHRHKSKKSKKVRRRSKTWSSSRSRSRSRSRSRGRSQERRRSRKSRKSRSRSRLKHREEKIEKKNLEKAPKNELIPQAPSTENGKPKEFKEPPRKDEADDLPLGADFSTPLVKKETKLAISITTVLPKAENKKEVEDGEIEEIAYGDGDFKEPEGIEKNLENKNICENGNLDNSENEKSKEKDKNRKKEKTERKRKRSHSSSDRRGRRTSKESRRRSRSRDTHRTRRRSPERSRRSTETRNERPERPSRWRSRSRERKEYDSYRRRRSRSREVIDKEKLLAIAKTKRAEMMSNGDRDSASIEDFVTYCKKLQRRQEREKRREAGHDVSDHDSDRETVRYKHPYAMPKEPIRINIVTATSANLAQKAITGPEEPTQLGAAQLRIVFPVSSGAVHKENAEWVPVEKEDVPKSCSVEQKKHVALTSLEIDRCRAQGIPVAPAPVPKFLNSILPPPPAPPQFLPNPTDSFRPPTPPPLPSVLYVPNKDQMILKEPKDIPIPAPSDIGKVLKQRTEAQRKVLSTPNDFDAHRALREANEQISLWAALKSLPGEYTGTTGLRLLTADELQPQNPKYHAWVKKDQFRNAAPATGGIGRLMLEKMGWRPGEGLGKDATGNLEPLMLDVKSDRKGLIAEEEMSIKQRNKINAQNNVPVDLSNKNPISLIMELCAKRRWNPPSFSCEESGADHLKMFVWTIVINDVEYRPMCGSKQKKEGKAVAAQVALQSLGVLPMDPNLPVYM | not soluble
9 | MGSDKIHHHHHHMSIKTSNTDFKTRIRQQIEDPIMRKAVANAQQRIGANRQKMVDELGHWEEWRDRAAQIRDHVLSNLDAYLYQLSEKVTQNGGHVYFARTKEDATRYILQVAQRKNARKVVKSKSMVTEEIGVNHVLQDAGIQVIETDLGEYILQLDQDPPSHVVVPAIHKDRHQIRRVLHERLGYEGPETPEAMTLFIRQKIREDFLSAEIGITGCNFAVAETGSVCLVTNEGNARMCTTLPKTHIAVMGMERIAPTFAEVDVLITMLARSAVGARLTGYNTWLTGPREAGHVDGPEEFHLVIVDNGRSEVLASEFRDVLRCIRCGACMNTCPAYRHIGGHGYGSIYPGPIGAVISPLLGGYKDFKDLPYACSLCTACDNVCPVRIPLSKLILRHRRVMAEKGITAKAEQRAIKMFAYANSHPGLWKVGMMAGAHAASWFINGGKTPLKFGAISDWMEARDLPEADGESFRSWFKKHQAQEKKNG | not soluble
10 | MSLDKNRTMLLIVDINKGFAKEGALYSDRIEKLISPISNLANYALNSGIRVKAFTDYHTEDSIELKAYPKHCMKDTDEWELVDELNLEGIEVIKKNSTNGFLEENFILNKEEIDNVIIVGDCTDICIYQLAISLRAEFNRVNKDGEIYVPKKLVDTFDMPMHKANFMNYVFLNSMLDNGVKVIEDIILDEGHHHHHH | not soluble
11 | MPFPFSRLFSFGVEHETGYVSRQSGRGRVYKGGGYSPFTITFQVSTHRSTMSDVTVAETPAVKTPTKAPKAPKSKTTKEPKAKVAAAHPPFINMVTAAISSLKERKGSSKIAILKYITANYKVGDQLTKINSRLRAALNKGVASKALVQSVGNGASGRFRVAEKAAATKKPVAKKPVAKKAATGEKKAKKTTVAKKTGDKVKKAKSPKKIAKPAAKKVAKSPAKKAAPKKAPAKKAAAPKA | not soluble
12 | MAHHHHHHMNCPIVLKTLEQNKNFCVINPEAMDSCIYISLDYFKENLITSCTHKKPLPHTCNVKNEISGIKNLKTEQIELNEFIQEYYKRLIINDDEIMWNVCYFRKSKEFLTILLLEFLKSMLTVLNKYNGKCIFKKTEYLVNCGHHITHRIWIQMFYEYGFESVDADTKKNMKNYPIIQQEDGNNRTLYLTIADHYKWDA | not soluble
13 | MGSDKIHHHHHHMKNVVTDPEKVTRILKTATEIFGQQGFIKSKTDQIANQAQVSKGLLFHYFGNKQALYLDAFKYAYHRIYDHMDPKKWQNAPGLAAMMTTAVKYELKLQFKFPAEYRLMMQAYADLPHFPEPLRQQVQQETTAISAEADRIFREKIEQLPRREGLSVDDVFGVVSALIAQQTAVTTRLIASGHYRKFEDLQSVVETMARQLLIVEHGFLPDES | not soluble
14 | MGRMNVSMMRYLEGDHFRVLIAVEMGMKNHEVVPLALVSAIAGIHRGGVARTLNDLCKHSLVAFERSKKFDGYRLTIRGYDYLALRALCSREVVGSVGNQIGIGKESDVYVGGDPELNDLCLKFHRLGRTSFRKIKEKRDYHKKRKSASWLYLSRLAAAKEFAFLKALQERGFPVPKAVDVCRHLVVMQLVVGQTLCNVTHVEDAGALYDRLMALIVKMARHGVIHGDFNEFNLIMLEDERIVMIDFPQMVSIDHPNAEYYFDRDVTCVRTFFKRKFDYESEDWPKFDEVERKGNMDVLLEASGFTKKMALDLNKAYDEGDFLAHCEQELRNRQEEDLGEDEDDSDDSKSMEDIQEEPEDLEKDHEELQAQENTVKQQKIVLSQTTRFTDWLSDATNQLEAVDLDALKSEEGYKDIELPPEDFKRPADSENDDENDEDEEEGEEEDADGHVAVEEQVAKVVKKKRVPSGARSVASSAATFTAEDVKRRLALDRKRNKEKIRLKVKGKQSAVGRNRKDNKDVIAEYAGWI | not soluble
15 | EGAALTEKTDIFESGRNGKPNKDGIKSYRIPALLKTDKGTLIAGADERRLHSSDWGDIGMVIRRSEDNGKTWGDRVTITNLRDNPKASDPSIGSPVNIDMVLVQDPETKRIFSIYDMFPEGKGIFGMSSQKEEAYKKIDGKTYQILYREGEKGAYTIRENGTVYTPDGKATDYRVVVDPVKPAYSDKGDLYKGNQLLGNIYFTTNKTSPFRIAKDSYLWMSYSDDDGKTWSAPQDITPMVKADWMKFLGVGPGTGIVLRNGPHKGRILIPVYTTNNVSHLNGSQSSRIIYSDDHGKTWHAGEAVNDNRQVDGQKIHSSTMNNRRAQNTESTVVQLNNGDVKLFMRGLTGDLQVATSKDGGVTWEKDIKRYPQVKDVYVQMSAIHTMHEGKEYIILSNAGGPKRENGMVHLARVEENGELTWLKHNPIQKGEFAYNSLQELGNGEYGILYEHTEKGQNAYTLSFRKFNWDFLSKDLISPTEAKVKRTREMGKGVIGLEFDSEVLV | soluble
16 | MQMPRRFNTYCPHCNEHQEHEVEKVRSGRQTGMKWIDRQRERNSGIGNDGKFSKVPGGDKPTKKTDLKYRCGECGKAHLREGWRAGRLEFQE | soluble
17 | MSLFTFKKGLHLPYNKEFTKDKSIEIFKPKKELIFPLSQHIGAPCEPIVEVGQKVLVNEKIADSSAFVSSPIHSSVSGTIKDIREIQSINGSNTQAIIIENDSKYEKYPKENLKYSSKLSLKDVVKLVKDYGIVGLGGATFPCHVKLNVKEDKEIKYIIINAAECEPYLTCDHRVMLEYTEEIIGGLRILLELFPKALIYIGIEDNKLNAIDKFKSILGEDNKIKVMPLKSKYPQGSEKHLIYALTKLQVPSGKLPLDIGCIAFNVSTIYQLYASLINGLPLTERIITVTGDSIRSPKNLRVKIGTQVKDIIEFCGGFINKPNKIILGGPMMGTSVNSLDLPITKGTSGILCLSKVDTSPNSHCIRCGKCLNSCPMNLIPQKLNELALKDKFDEFEFLGGMDCLECGCCTFSCPAKISIVNNIRNAKKSLRNKSKNLEHHHHHH | soluble
18 | MRHTCPKVTLRQRAIRNGRISLYLDYYPAVRNPETMQMSRREYLGIYIYAHPKNEMEREFNMDMLNKAEAIRCIRVQSLINEEFGFLDRTKMKTDFLAYFLKMCRKKDQKWRIVYQHFYNYVQGHCTFGDITIELCQGFREYLLNAKQLKRKGKVSTNSASGYYSTFRGLLKIAYRDKWLRENINDFLDKIEAKEVKKEYLTLDEVKILAQTPCEHDVLKRASLFSCLTGLRISDILNLRWEDFTLAPDQGYCIRIRTQKTSTEATLPIS | not soluble
19 | MGKYFGTDGVRGVANSELTPELAFKVGRFGGYVLTKDKQRPKVLIGRDTRISGHMLEGALVAGLLSIGAEVMRLGVISTPGVSYLTKAMDAEAGVMISASHNPVQDNGIKFFGGDGFKLSDEQEAEIERLMDEPEDKLPRPVGADLGLVNDYFEGGQKYLQFLKQTADEDFTGIHVALDCANGATSSLATHLFADLDADVSTMGTSPNGLNINDGVGSTHPEALSAFVKEKNADLGLAFDGDGDRLIAVDEKGNIVDGDQIMYICSKHLKSEGRLKDDTVVSTVMSNLGFYKALEKEGIKSVQTAVGDRYVVEAMKKDGYNVGGEQSGHLIFLDYNTTGDGLLSAIMLMNTLKATGKPLSELAAEMQKFPQLLVNVRVTDKYKVEENEKVKAVISEVEKEMNGDGRILVRPSGTEPLVRVMAEAKTKELCDEYVNRIVEVVRSEMGLE | not soluble
20 | MDERWMVMKITIVFENHAGYRKGLIGYHGFSALVEANGYRVLVDTGTDGKVLLNNMSELGISPDDIDALFITHGHYDHTGGLRELLSARTEALDIYAHPGIFKRRLALKPKKREIGIPFTREELEELGGKFILSDKSKEILPGFISSGEIERITWDRAVGYFPDGSKDPVRDDMALIVEEGSKSVVITGCGHSGIINIAIHSKKLTNNRIAALIGGFHLKGIERSLLDEAVKKLRELEIEKLYPGHCTGIEEFAYLWSKFGNVEGIHVGKEIKILEHHHHHH | soluble
